# According to the supplement of paper PMC9170038:
# Test system: MS2 coat protein
# Assay: apparent KD of MS2 coat protein; designed switch direction (-1 OFF switch, 1 ON switch): -1; higher = weaker reporter binding
# Outline: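 Stalled E. coli RNA polymerase transcribed designed RNA switches on Illumina chips, which were then titrated with SNAP-549-labelled MS2 coat protein, doubling from 0.7 or 1.5 nM to 3 µM. Steps lasted from 0.8–1.5 h at the lowest concentration to 10–20 min at the highest. The apparent KD is each design's median over clusters of curve-fitted normalised fluorescence.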
# [1] = Eterna round: R95, input ligand: FMN 200 uM
# [2] = Eterna round: R95, input ligand: microRNA oligo, concentration not stated
# [3] = Eterna round: R95, input ligand: none
# [4] = input ligand: microRNA oligo, concentration not stated
Sequence,apparent KD of MS2 coat protein (input ligand: FMN 200 uM) [nM],apparent KD of MS2 coat protein (input ligand: none) [nM],apparent KD of MS2 coat protein [1] [nM],apparent KD of MS2 coat protein [2] [nM],apparent KD of MS2 coat protein [3] [nM],apparent KD of MS2 coat protein [4] [nM]
"AAAAAAAAAGUGAGGAUAUGCUCUACCUCGGUAGAGCAGAAGGCACAUGAGGAUCACCCAUGUGACUCCUCAUU [Omei Ex4B B25] (Eterna round: R97, puzzle: Brourd's mod of Exclusion 4)",29.6,19.1,,,,
AAAAAACAAGGAUAUACGAAGGAGGGUUAUCUUAAUUUUUGACAUGAGGAUCACCCAUGUAGAAGGUGUUAAAA [JR_Exclusion2_Sub011] (puzzle: Exclusion 2),,,571,202,156,
AAAAAACAAGGAUAUACGGAUGAAGAUUGUCUUAAUUUUUGACAUGAGGAUCACCCAUGUAGAAGGUGUUAAAA [JR_Exclusion2_Sub016] (puzzle: Exclusion 2),,,,158,,
AAAAAGGUAGGAUAUACGAAAAAAAAGGGUAGAAAAAAAACACAUGAGGAUCACCCAUGUAGAAGGACCAAAAA [salish99_ex2_r3_043] (puzzle: Exclusion 2),,,97.3,26.8,26.1,
AAAAAGUGAGGAUAUGCAUAAGGACCCGGGAGGGAAAUAAAACAUGAGGAUCACCCAUGUAGAAGGCGCAAAAA [Exclss2-II] (puzzle: Exclusion 2),,,17.2,16,15.7,
"AAAACGUGAGCAGGAUAUGCAAUAAGAUCAGGUCUUCACAUGAGGAUCACCCAUGUAUAAGGGACGCAGAAGGGCUGAUAAAAG [Aesedat] (Eterna round: R96, puzzle: Exclusion NG 2)",98.4,60.9,,,,49.6
"AAAAGAACAUGAGGAUCACCCAUGUGAACCUUCGUUCGACCUCAGGAUAUCCGCCACCGUCCGCAGGAGAAGGGAGGUAAAAUA [Quraa] (Eterna round: R96, puzzle: Exclusion NG 3)",169,58.8,,,,45.6
AAAAGAAGUGUUAGGAUAUGUGGAAGCAGAAAGACACAGAAGGAACAUGAGGAUCACCCAUGUGACCAAAGAAC [Maenonis] (puzzle: Brourd's mod of Exclusion 4),,,27.1,15.8,15.3,
"AAAAGCCUAGGAUAUACUUGAGGAUCACCCAAGUAGGGUCGCAUGGACCCGUCCUCGUGUAGAAGGAGGAAAAG [Orreteceer] (Eterna round: R97, puzzle: Exclusion 3)",108,46.7,,,,
AAAAGGCUAGGAUAUACAUGAGGAUCACCCAUGUGUACUGGACAUGCGGUAUGCGGAUGUAGAAGGAGUAUAAA [Esrere] (puzzle: Exclusion 3),,,,22.4,,
AAAAGGUCAGGAUAUCGGCGCGGUUGGGAGGCAGGUCCGCGCGAGAAGGGACAUGAGGAUCACCCAUGUUAAAA [Excls4-III] (puzzle: Exclusion 4),,,,20.7,,
AAAAGUUAAGGAUAUACAGGGAGCCGCGGCGUCUGGCCGCAACAUGAGGAUCACCCAUGUAGAAGGUAGCCAAA [Maatmaso] (puzzle: Exclusion 2),,,61.5,20.6,30.5,
"AAAAUGGCAGGAUAUACAUGAGGAUCACCCAUGUUCGUCUUUACAUGUAAAAUGCUCUGUAGAAGGGCCUCGAA [Quised] (Eterna round: R97, puzzle: Exclusion 3)",47.1,21.9,,,,
AAAAUGUAAGGAUAUAGCCGGAACAAAGGGUCAAUAACCGGCUAGAAGGUACAUGAGGAUCACCCAUGUAAGAA [Excls4-V] (puzzle: Exclusion 4),,,19.4,13.3,15.8,
AAAAUGUAAGGAUAUGGCCGGGACCCAGGGUUUGGACCCGGCUAGAAGGUACAUGAGGAUCACCCAUGUAAGAA [Excls4-VIII] (puzzle: Exclusion 4),,,,16.1,,
"AAACAAAAGGCAGGAUAUCCUCGUCAACACCACAAGUCCACUCGGACAUGAGGAUCACCCAUGUAGGAGAAGGGCCAGAAAUAC [Bevearla] (Eterna round: R96, puzzle: Exclusion NG 2)",88.8,19.6,,,,17.5
"AAACACGGAGGAUAUGGUCACUAGGACAUGAGGAUCACCCAUGUGGGAGUGCUAGUGCUACCAGAAGGUUGAAGUC [Eternabot (L1) Solution 54] (Eterna round: R97, puzzle: Exclusion 5)",66.6,76.1,,,,
"AAACAGCGAGGAUAUGCAGACGCUCCUUCCUCACGUCAAGGACAUGAGGAUCACCCAUGUAGAAGGCGCACAAC [Isriteti] (Eterna round: R97, puzzle: Exclusion 2)",116,76,,,,
"AAACCUGCCCAUGACCGCAAGCUUUUUGCUUGUCUUACCACAUGAGGAUCACCCAUGUGACAUGGGCUCCUUAUAAA [Usteorrila] (puzzle: Sensor v3, turn-off variant 2)",,,12.7,9.84,11.5,
"AAACCUUGUGUCAGGAUAUGCAGAGGGAACGCCAGGCAGAAGGGACAUGAGGAUCACCCAUGUACAUUUUAAAC [BmEX4 B.19] (Eterna round: R97, puzzle: Brourd's mod of Exclusion 4)",487,39.2,,,,
"AAACGGCAGGGAGGAUAUGCUUACCUGGGUCGUCUUCAAACAUGAGGAUCACCCAUGUAGUCGACGCAGAAGGCCCUCAAAGCC [JL ViennaUCT Ontiis mod] (Eterna round: R96, puzzle: Exclusion NG 2)",144,18.6,,,,18
AAAGAACUAGGAUAUCGCGCUACAGACAUGAGGAUCACCCAUGUAAUCGCAUGUCAAGUUUGAGAAGGAGUGAAGA [Usissodi] (puzzle: Exclusion 5),,,21.5,11.9,9.9,
"AAAGAAGAGAGAAAAUAACACAUGAGGAUCACCCAUGUGAGAAGUUGAGGGUGAUACAGGCUUUUUGCUCGUCUUAU (puzzle: Sensor v3, turn-off variant 1)",,,233,263,332,
"AAAGAUCAAGGAUAUGCAACGGCACACAUGAGGAUCACCCAUGUGAUGUACGUUGUGUCGGCAGAAGGUGAGGGUC [JR_Ex5_Sub056] (Eterna round: R97, puzzle: Exclusion 5)",13.8,14.3,,,,
"AAAGGACGAUUAGGAUAUUCGGUUCAAGGUAAAGAAGAAGGAAUCGUUCCAUACUUAACAUGAGGAUCACCCAUGUGGGUCUAG [Eternabot solution 38] (Eterna round: R96, puzzle: Exclusion NG 1)",,,,,,25.5
AAAGUGUGAGGAUAUCCUGGGCUGGGCCGGGAGGUUCGGUUGGAGAAGGCACAUGAGGAUCACCCAUGUAACGG [Excls4-IX] (puzzle: Exclusion 4),,,,57.1,,
"AAAUACAAGCAAAGAUCUUACAUGAGGAUCACCCAUGUGCUCGUCUUAUAAAGUACUAUCACGAAAGUGAUAGUACA [Sensor 3, v1 - 29] (puzzle: Sensor v3, turn-off variant 1)",,,19.5,108,19.1,
